The record followed here is patent US20210324094A1 (MOGAM INSTITUTE FOR BIOMEDICAL RESEARCH, published 2021).

One test deals with T1, Human IR (human, UniProt P06213 28-956, limits assumed).
T1 construct: the natural receptor is processed into alpha and beta chains; also called human insulin receptor
As to the kind of experiment: SPR, IR immobilised on CM5 chip, IR739 flowed, pH 7.0. As for the experimental part: (§1) Human IR or mouse IR at 1 μg/ml was immobilized with acetate (pH 4.0) on a CM5 sensor chip. […] For measurement conditions, a flow rate was set as 30 μl/min, and an association time and a dissociation time were set as 120 seconds and 600 seconds, respectively. For regeneration, 10 mM glycine-HCl (pH 1.5) was flowed for 30 seconds.
A general note: Surface plasmon resonance follows binding to a sensor surface in real time, without labels.

The next test has as its target T2, Mouse IR (mouse, UniProt P15208 28-946, limits assumed).
T2 construct: also called mouse insulin receptor
The description is as above. Here is the method:
as §1

B1: IR739 (antibody, human IgG1, kappa, V domains shown)
VH: EVQLVESGGGLVQPGGSLRLSCAASGFTFSSYYMSWVRQAPGKGLEWVSAISYGGSSTYYADSVKGRFTISRDNSKNTLYLQMNSLRAEDTAVYYCARHPSYGTVNHAYFDVWGQGTLVTVSS
VL: DIQMTQSPSSLSASVGDRVTITCGASRDVSSYLAWYQQKPGKAPKLLIYDANILQSGVPSRFSGSGSGTDFTLTISSLQPEDFATYYCLEYNNLPLTFGQGTKVEIKR
notes: Conventional IgG from a human synthetic scFv library; also called IR739 antibody; anti-IR antibody
The Kd is the equilibrium constant for the complex coming apart. High values mean lower affinity, low ones higher affinity. The term koff denotes the rate constant with which the complex falls apart. As usually defined, the kon is the rate constant with which the complex forms. As to B1, in the test with Human IR, binding was characterised by a dissociation constant (Kd) of 15 nM, the koff is 0.00144 s⁻¹ and the kon was determined as 96000 M⁻¹ s⁻¹. In the test with Mouse IR, this molecule displayed a Kd of 6.4 nM, a koff of 0.00061 s⁻¹ and a kon of 95300 M⁻¹ s⁻¹.
